Assay in all cases: SPR (Biacore), antibody captured on chip, FcgR extracellular domain as analyte
On the technique in general: In SPR one partner is held on a chip, and binding of the other changes the refractive index at the surface.

Test [1] concerns the target T1, FcgRIIa R (human, UniProt P12318 34-217).
T1 construct: extracellular domain; also called FcγRIIa R; FcγRIIa type R; not shown: His tag attached to the C terminus
T1 sequence (looked up): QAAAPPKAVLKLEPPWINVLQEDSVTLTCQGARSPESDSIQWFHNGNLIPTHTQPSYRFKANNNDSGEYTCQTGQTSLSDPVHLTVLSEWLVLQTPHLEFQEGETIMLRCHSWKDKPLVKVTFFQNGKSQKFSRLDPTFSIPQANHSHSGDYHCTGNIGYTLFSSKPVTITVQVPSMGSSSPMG

For test [2], the target named is T2, FcgRIIa H (human, UniProt P12318 34-217).
T2 construct: extracellular domain; also called FcγRIIa H; FcγRIIa type H; not shown: His tag attached to the C terminus
T2 sequence (looked up): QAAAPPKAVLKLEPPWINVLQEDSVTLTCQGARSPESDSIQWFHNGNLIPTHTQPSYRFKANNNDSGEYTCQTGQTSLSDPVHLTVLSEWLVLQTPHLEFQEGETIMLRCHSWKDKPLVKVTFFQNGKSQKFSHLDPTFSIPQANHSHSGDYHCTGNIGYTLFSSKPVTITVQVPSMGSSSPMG

Test [3] addresses T3, FcgRIa (human, UniProt P12314 16-292).
T3 construct: extracellular domain; Expressed in FreeStyle293 cells and purified; used as analyte in Biacore; also called FcγRIa; FcγRI; not shown: His tag attached to the C terminus

Test [4] addresses T1, FcgRIIa R. The source holds these as a separate data set.
Test [5] has as its target T2, FcgRIIa H. This is another data set of the same source.
In test [6] the target is T4, FcgRIIIa V (human, UniProt P08637 17-208).
T4 construct: extracellular domain; also called FcγRIIIa V; not shown: His tag attached to the C terminus
T4 sequence (P08637 17-208 F176V limits assumed): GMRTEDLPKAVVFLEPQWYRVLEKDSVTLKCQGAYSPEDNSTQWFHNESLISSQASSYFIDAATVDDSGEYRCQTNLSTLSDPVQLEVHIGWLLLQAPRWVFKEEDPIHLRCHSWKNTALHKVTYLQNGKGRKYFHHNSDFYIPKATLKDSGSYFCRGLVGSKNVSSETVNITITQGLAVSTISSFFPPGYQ

For test [7], the target named is T5, FcgRIIb (human, UniProt P31994 43-217).
T5 construct: extracellular domain; Expressed in FreeStyle293 cells and purified; used as analyte in Biacore; also called FcγRIIb; CD32B; not shown: His tag attached to the C terminus
T5 sequence (looked up): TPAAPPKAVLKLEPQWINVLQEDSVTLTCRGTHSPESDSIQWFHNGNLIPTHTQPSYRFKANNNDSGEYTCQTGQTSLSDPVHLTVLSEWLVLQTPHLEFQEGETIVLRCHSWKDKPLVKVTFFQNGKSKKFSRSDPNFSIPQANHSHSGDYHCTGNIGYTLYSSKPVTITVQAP

In test [8] the target is T3, FcgRIa. This is another data set of the same source.
Test [9] concerns the target T6, FcgRIIIa F (human, UniProt P08637 17-208).
T6 construct: extracellular domain; also called FcγRIIIa F; not shown: His tag attached to the C terminus

Where two headings read alike, the source gives them in different places.

T3 sequence (P12314 16-292): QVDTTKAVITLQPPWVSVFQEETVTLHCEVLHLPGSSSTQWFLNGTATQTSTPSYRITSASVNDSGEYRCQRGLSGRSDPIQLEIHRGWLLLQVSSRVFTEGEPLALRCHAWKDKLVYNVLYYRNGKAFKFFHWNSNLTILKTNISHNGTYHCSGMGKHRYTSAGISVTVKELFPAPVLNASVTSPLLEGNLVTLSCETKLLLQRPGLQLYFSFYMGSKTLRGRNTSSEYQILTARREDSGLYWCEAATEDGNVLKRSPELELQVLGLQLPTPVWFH
T6 sequence (P08637 17-208): as the sequence (P08637 17-208 F176V limits assumed) above, with V160F counted along it

B1: H240-afucosyl_G1d/L73-k0 (antibody, human IgG1, kappa)
heavy: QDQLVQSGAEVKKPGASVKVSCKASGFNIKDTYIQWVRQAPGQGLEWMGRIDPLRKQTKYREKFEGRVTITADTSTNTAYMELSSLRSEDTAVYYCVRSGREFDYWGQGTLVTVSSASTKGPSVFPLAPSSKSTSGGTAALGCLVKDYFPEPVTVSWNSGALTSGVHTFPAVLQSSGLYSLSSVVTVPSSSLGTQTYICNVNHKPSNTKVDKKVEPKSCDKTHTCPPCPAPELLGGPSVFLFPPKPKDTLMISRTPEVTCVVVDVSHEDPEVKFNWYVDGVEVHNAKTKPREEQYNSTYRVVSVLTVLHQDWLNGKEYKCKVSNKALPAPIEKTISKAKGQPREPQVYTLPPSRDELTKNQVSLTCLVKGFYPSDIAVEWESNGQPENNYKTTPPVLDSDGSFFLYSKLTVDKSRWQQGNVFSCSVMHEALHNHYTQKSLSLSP
light: DIQMTQSPSSLSASVGDRVTITCRASQDIHKYIAWYQQKPGQAPRLLIQYTSTLQPGVPSRFSGSGSGTDYTFTISSLQPEDIATYYCLQYEQLRTFGGGTKVEIKRTVAAPSVFIFPPSDEQLKSGTASVVCLLNNFYPREAKVQWKVDNALQSGNSQESVTEQDSKDSTYSLSSTLTLSKADYEKHKVYACEVTHQGLSSPVTKSFNRGEC
modifications: fucose removed from the sugar chain (afucosylated); amino acid sequence same as H240-G1d
notes: Anti-EREG IgG1 obtained by afucosylating H240-G1d/L73-k0; also called afucosylated antibody
Regarding B1, the Kd (in general, the equilibrium constant for the complex coming apart) amounted to 490 nM in test [1]; 780 nM in test [2]; 0.43 nM in test [3]; 490 nM in test [4]; 780 nM in test [5]; 6.9 nM in [6]. Moreover, the Kd amounted to 2600 nM in [7], 0.43 nM in test [8] and 79 nM in [9].

Source of the values: patent US20180155451A1 (published 2018).
